Assay results published in article PMC11252911 (Proceedings of the National Academy of Sciences of the …, 2024).

How the values were obtained:
[1] = biological target: Pwl2-3 (Magnaporthe oryzae); experiment: ITC
[2] = biological target: Pwl2-2 (Magnaporthe oryzae); experiment: ITC

HMA domain of OsHIPP43 (residues 26 to 101) (from UniProt Q8LJL3 26-101) (domain or fragment)
Kd [1]: 35 nM
Kd [2]: 141 nM
